Measured values from patent US11597760 (dated 2023).

B1: CFA0666 (antibody, V domains shown)
VH: QSVEESGGRLVTPGTPLTLTCTVSGFSLSTYAMGWVRQAPGKGLEWIGTIDTGDNSFYANWAKGRFTISKTSTTVDLKITSPTAEDTATYFCARNDGSVYNLFNLWGPGTLVTVSS
VL: DVVMTQTPASVSAAVGGTVTIKCQASENIYSALSWYQQKPGLRPRLLIYYASTLASGVPSRFKGSRSGTEFTLTISDLECADAATYYCQQYYDINSVDNTFGGGTKVVVE
B2: CFA0675 (antibody, V domains shown)
VH: QSVEESGGRLVTPGTPLTLTCTVSGFSLSTYAMGWVRQAPGKGLEWIGTIDTGDNSFYANWAKGRFTISRTSTTVDLKITSPTAEDTATYFCARNDGSVYNLFNLWGPGTLVTVSS
VL: DVVMTQTPASVSAAVGGTVTIKCQASENIYSALSWYQQKPGLRPRLLIYYASTLASGVPSRFKGSRSGTEFTLTISDLECADAASYYCQQYYDINSVDNTFGGGTKVVVE
B3: CFA0330 (antibody, V domains shown)
VH: QSLEESGGDLVEPGASLTLTCTASGFSWNSGYDMCWVRQAPGKGLEWIACIYTGSSANTAYANWAKGRFTISKTSSTTVTLQMTGLTAADTATYFCARHDDYFFDLWGPGTLVTVSS
VL: DVVMTQTPASVSESVGGTVTINCQASQSIGNNLAWYQQKPGQPPKLLIYDASNLASGVPSRFKGSRSGTEPTLTNTLTISGVQCADVATYYCQSGWYGNSYVAAFGGGTEVVVK
B4: CFA0307 (antibody, V domains shown)
VH: QSLEESGGGLVKPGASLTLTCKASGIDFSNFYYICWVRQAPGKGLDLIACIYTVSGYTYYASWAKGRLTISKTSSTTVTLQMTSLTAADTATYFCARDLHAGITNLWGPGTLVTVSS
VL: AIEMTQTPFSVSAAVGGTVTIKCQASQNIYSNLAWYQQKPGQRPKLLIYGASNLESGVPSRFKGSGSGTEYTLTISDLECADAATYYCLQGYSYSNVDDAFGGGTEVVVK
B5: CFA0672 (antibody, V domains shown)
VH: QSVEESGGRLVTPGTPLTLTCTASGFSLSGNAINWVRQAPGKGLEWIGCIYTGSDTTYYATWAKGRFTISKTSTTVDLKIASPTTEDTATYFCARGSGLWGPGTLVTVSS
VL: DVVMTQTPASVSAPVGGTVTIKCQASQNIYSLLAWYQQKPGQPPKLLIYHTSDLASGVPSRFRGSGSGTEFTLTISDLECADAATYYCQCTAYGSSDVGGTFGGGTTVVVE
B6: CFA0599 (antibody, V domains shown)
VH: QSVEESGGRLVTPGTPLTLTCTVSGLSLSDNTMTWVRQAPGKGLEWIGIISFGGDAYYASWAKGRFPISKTSTTVDLRITSPTTEDTATYFCARVGAGNIFWYFDLWGPGTLVTVSS
VL: AYDMTQTPASVEVSVGGTVTIKCQASESIYSALAWYQQKPGQPPKLLIYSASTLASGVPSRFKGSGSGTEYTLTISDLECADAATYYCQQYYSSTNVHNSFGGGTTVVVE
B7: 305LO5 (antibody, V domains shown)
VH: QVQLVESGGGLVQPGGSLRLSCAASGFTSHSSYYVAWVRQAPGKGLEWVGAIYTGSGATYKASWAKGRFTISKDTSKNQVVLTMTNMDPVDTATYYCASDGGYDYPTHAMHYWGQGTLVTVSS
VL: DVVMTQSPSSLSASVGDRVTITCQASQNIGSSLAWYQQKPGQAPRLLIYGASKTHSGVPSRFSGSGSGTDFTLTISSLQPEDVATYYCQSTKVGSSYGNHFGGGTKVEIK
B8: 305LO20-SG115 (antibody, V domains shown)
VH: QVQLVESGGGLVQPGGSLRLSCAASGFTVHSSYYMAWVRQAPGKGLEWVGAIFTGSGAEYKAEWAKGRVTISKDTSKNQVVLTMTNMDPVDTATYYCASDAGYDYPTHAMHYWGQGTLVTVSS
VL: DIQMTQSPSSLSASVGDRVTITCRASQGISSSLAWYQQKPGQAPRLLIYGASETESGVPSRFSGSGSGTDFTLTISSLQPEDFATYYCQNTKVGSSYGNTFGGGTKVEIK
B9: 305LO23-SG115 (antibody, V domains shown)
VH: QVQLVESGGGLVQPGGSLRLSCAASGFTVHSSYYMAWVRQAPGKGLEWVSGIFTGSGATYKAEWAKGRVTISKDTSKNQVVLTMTNMDPVDTATYYCASDAGYDYPTHAMHYWGQGTLVTVSS
VL: DIQMTQSPSSLSASVGDRVTITCRASQGISSSLAWYQQKPGQAPRLLIYGASTTQSGVPSRFSGSGSGTDFTLTISSLQPEDFATYYCQNTKVGSSYGNTFGGGTKVEIK
B10: 305LO20-SG422 (antibody, V domains shown)
VH: QVQLVESGGGLVQPGGSLRLSCAASGFTVHSSYYMAWVRQAPGKGLEWVGAIFTGSGAEYKAEWAKGRVTISKDTSKNQVVLTMTNMDPVDTATYYCASDAGYDYPTHAMHYWGQGTLVTVSS
VL: DIQMTQSPSSLSASVGDRVTITCRASQGISSSLAWYQQKPGQAPRLLIYGASETESGVPSRFSGSGSGTDFTLTISSLQPEDFATYYCQNTKVGSSYGNTFGGGTKVEIK
B11: CFA0538 (antibody, V domains shown)
VH: QSVEESGGRLVTPGTPLTLTCTASGFSLSSYYMNWVRQAPGKGLEWIGMIYGSGATYYASWAKGRFTISKTSSTTVDLKMTSLTTEDTATYFCARQIYSGDNNDNFWGPGTLVTVSS
VL: AYDMTQTPASVEVAVGGTVTINCQASESISNWLAWYQQKPGQRPKLLIYRASTLASGVSSRFKGSGSGTQFTLTISGVECDDAATYYCQQDYSSSNVDNTFGGGTTVVVE
B12: CFA0501 (antibody, V domains shown)
VH: QSVEESGGRLVTPGTPLTLTCTASGFSLSSYYMNWVRQAPGKGLEWIGMIYGSGATYYASWAKGRFTISKTSSTTVDLKMTSLTTEDTATYFCARQIYSGDNNDNFWGPGTLVTVSS
VL: AYDMTQTPASVEVAVGGTVTINCQASESISNWLAWYQQKPGQRPKLLIYRASTLASGVSSRFKGSGSGTQFTLTISGVECDDAATYYCQQDYSSSNVDNTFGGGTKVVVE
B13: 305LO16-SG422 (antibody, V domains shown)
VH: QVQLVESGGGLVQPGRSLRLSCAASGFTVHSSYYMAWVRQAPGKGLEWVGAIFTGSGAEYKAEWVKGRFTISRDNSKNTLYLQMNSLRAEDTAVYYCASDAGYDYPTHAMHYWGRGTLVTVSS
VL: DIQMTQSPSSLSASVGDRVTITCRASQGISSSLAWYQQKPGKAPKLLIYGASETESGVPSRFSGSGSGTDFTLTISSLQPEDFATYYCQNTKVGSSYGNTFGGGTKVEIK
B14: CFA0366 (antibody, V domains shown)
VH: QSLEESGGDLVKPGASLSLTCTAAGLDFSSSYYMCWVRQAPGKGLEWIACIYAGSSGIIYYANWAKGRFTISRPSSTTVTLQMTSLTAADTATYFCATYPTYGDGGHAFNLWGPGTLVTVSS
VL: AQVLTQTPSSVSAAVGGTVTINCQSSQSVYSSDYLSWYQQKPGQPPKLLIYEASKLASGVPPRFSGSGSGTQFTLTISGVQCDDAATYYCQGTYYSSGWYFAFGGGTEVVVK
B15: CFA0341 (antibody, V domains shown)
VH: QSVEESGGRLVTPGTPLTLTCTVSGIDLSSYTMGWVRQAPGKGLECIGYIHSFGSTYYASWAKGRFTISKTSTTVDLEITSPTTEDTATYFCARDVGGSSGWDLWGQGTLVTVSS
VL: DVVMTQTPSSVSAAVGGTVTIKCQASENIYSNLAWYQQKPGQPPKRLIYDASDLASGVPSRFSGSGYGTQFTLTISGVQCEDAATYYCQANYDSTSSSFGNVFGGGTEVVVK

Legend:
[1] = biological target: human C5 (human); assay: SPR, pH 5.8, 37C
[2] = biological target: human C5 (human); assay: SPR, pH 7.4, 37C
[3] = biological target: human C5 (human); assay: SPR, pH 7.4, 37C; remark: listed apart in the source
[4] = biological target: human C5 (human); assay: SPR, pH 5.8, 37C; remark: listed apart in the source

Binder | Kd [1] | Kd [2] | Kd [3] | Kd [4]
B1 | 33.3 nM | 1.71 nM | – | –
B2 | 17 nM | 1.08 nM | – | –
B3 | 0.184 nM | 0.122 nM | – | –
B4 | 164 nM | 8.13 nM | – | –
B5 | 138 nM | 0.351 nM | – | –
B6 | 82.1 nM | 5.93 nM | – | –
B7 | 14 nM | 0.471 nM | – | –
B8 | – | – | 0.324 nM | 58.1 nM
B9 | – | – | 0.277 nM | 64.1 nM
B10 | – | – | 0.349 nM | 59.9 nM
B11 | 246 nM | 3.91 nM | – | –
B12 | 174 nM | 3.56 nM | – | –
B13 | – | – | 0.321 nM | 79.5 nM
B14 | 75.2 nM | 8.99 nM | – | –
B15 | 0.0595 nM | 0.155 nM | – | –
